Test results published in patent US20140322196A1.
“And” between values parts separate entries of the source, which are not always exact repeats. Equal entries are not always repeated.

What was measured:
[1] = biological target: Hemagglutinin (HA) of Influenza A virus A/Roma-ISS/2/08 (Brisbane-like) (oseltamivir-sensitive) H1N1 (Influenza A virus A/RomaISS/2/08 H1N1)
[2] = biological target: Hemagglutinin (HA) of Influenza A virus A/Turkey/Italy/2676/99 H7N1 (Influenza A virus A/Turkey/Italy/2676/99 H7N1); assay: cell-based or functional assay
[3] = biological target: Hemagglutinin (HA) of Influenza A virus A/Parma/5/06 (Wisconsin-like) H3N2 (Influenza A virus A/Parma/05/06 H3N2); assay: cell-based or functional assay
[4] = biological target: Hemagglutinin (HA) of Influenza A virus A/Roma-ISS/2/08 (Brisbane-like) (oseltamivir-sensitive) H1N1 (Influenza A virus A/RomaISS/2/08 H1N1); assay: cell-based or functional assay
[5] = biological target: Hemagglutinin (HA) of Influenza A virus A/Puerto Rico/8/34 H1N1 (PR8 virus) (Influenza A virus A/Puerto Rico/8/34 H1N1) (UniProt P03452); assay: cell-based or functional assay

Substance	percentage of virus binding to bLf [1]	HI titre [2] [fM]	HI titre [3] [pM]	HI titre [4] [pM]	HI titre [5] [nM]
Lactoferrin from bovine milk (bLf) (from UniProt P24627 20-708)	52.9% and 34.1% and 47.2%	93.1	3000	6000	3
… (SEQ ID NO: 1), bLf C-lobe peptide 418-429		18	0.7	1.4	0.7
… (SEQ ID NO: 2), bLf C-lobe peptide 506-522		46.5	0.7	1.4	0.35
